Measurements: patent US20210101998A1 (Pfizer, published 2021)
Substitutions are numbered along the chain they refer to. Like-named read-outs stand apart in the source and are kept apart here.

T1: cyno K1 (cynomolgus monkey, UniProt Q28864 29-115 (rhesus entry), limits assumed)
T1 construct: also called K1 domain alone
T1 chain: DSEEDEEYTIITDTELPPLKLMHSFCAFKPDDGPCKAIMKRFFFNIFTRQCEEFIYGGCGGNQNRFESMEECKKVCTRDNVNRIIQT

T2: murTFPI K1K2 (mouse)
T2 construct: also called Mouse TFPI K1K2; mouse TFPI
T2 chain: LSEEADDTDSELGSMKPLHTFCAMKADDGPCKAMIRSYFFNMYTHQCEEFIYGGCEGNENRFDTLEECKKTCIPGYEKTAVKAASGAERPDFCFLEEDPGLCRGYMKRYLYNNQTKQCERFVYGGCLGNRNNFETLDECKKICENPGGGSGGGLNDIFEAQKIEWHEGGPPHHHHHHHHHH

T3: rabTFPI K1K2 (rabbit, limits assumed)
T3 construct: also called Rabbit TFPI K1K2; rabbit TFPI
T3 chain: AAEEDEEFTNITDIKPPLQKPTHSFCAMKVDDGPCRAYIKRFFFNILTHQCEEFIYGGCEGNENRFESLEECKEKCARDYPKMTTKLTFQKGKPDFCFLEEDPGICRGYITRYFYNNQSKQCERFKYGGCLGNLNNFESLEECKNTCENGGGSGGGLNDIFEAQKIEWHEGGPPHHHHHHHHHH

T4: ratTFPI K1K2 (rat)
T4 chain: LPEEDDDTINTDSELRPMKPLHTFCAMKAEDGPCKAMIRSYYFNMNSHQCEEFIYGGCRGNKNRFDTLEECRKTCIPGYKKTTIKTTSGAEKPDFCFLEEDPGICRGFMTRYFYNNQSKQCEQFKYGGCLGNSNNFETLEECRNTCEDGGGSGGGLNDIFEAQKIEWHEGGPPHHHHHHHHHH

B1: 2A8 (antibody, human IgG1, lambda, V domains shown)
VH: QVQLVESGGGLVQPGGSLRLSCAASGFTFRSYGMSWVRQAPGKGLEWVSSIRGSSSSTYYADSVKGRFTISRDNSKNTLYLQMNSLRAEDTAVYYCARKYRYWFDYWGQGTLVTVSS
VL: DIELTQPPSVSVAPGQTARISCSGDNLRNYYAHWYQQKPGQAPVVVIYYDNNRPSGIPERFSGSNSGNTATLTISGTQAEDEADYYCQSWDDGVPVFGGGTKLTVLG
B2: 4D8.b1 (antibody, mouse IgG1, kappa)
light: DIVMTQSHKFMSTSVGDRVSITCKASQDVHTAVAWYQQKPGQSPRLLIYWASTRHTGVPDRFTGCGSGTDYTLTISSVQAEDLALYYCQQHYTTPYTFGGGTKLEMKADAAPTVSIFPPSSEQLTSGGASVVCFLNNFYPKDINVKWKIDGSERQNGVLNSWTDQDSKDSTYSMSSTLTLTKDEYERHNSYTCEATHKTSTSPIVKSFNRNEC
heavy: EVLLQQSGPELVKPGASVKIPCKASGYTFTDYNLDWVKQSHGKSLEWIGDINPINGATLYNQKFKGKATLTVDQSSSTAYMELRSLTSEDTAVYYCSIYYGDYDAMDYWGQGASVTVSSAKTTPPSVYPLAPGSAAQTNSMVTLGCLVKGYFPEPVTVTWNSGSLSSGVHTFPAVLQSDLYTLSSSVTVPSSTWPSETVTCNVAHPASSTKVDKKIVPRDCGCKPCICTVPEVSSVFIFPPKPKDVLTITLTPKVTCVVVDISKDDPEVQFSWFVDDVEVHTAQTQPREEQFNSTFRSVSELPIMHQDWLNGKEFKCRVNSAAFPAPIEKTISKTKGRPKAPQVYTIPPPKEQMAKDKVSLTCMITDFFPEDITVEWQWNGQPAENYKNTQPIMDTDGSYFVYSKLNVQKSNWEAGNTFTCSVLHEGLHNHHTEKSLSHSPGK
notes: Mouse monoclonal antibody purified from a hybridoma subclone; also called mouse 4d8.b1; TFPI 4D8
B3: TFPI-24 (antibody, human IgG1, lambda, V domains shown)
VH: EVQLVESGGGSVQPGRSLRLSCAVSGLTIDNYAMQWVRQRPGKGLEWVSGISGNSRSIGYADSVKGRLTISRDNAKNSLYLQIDSLRADDTALYYCAIFLHESDYWGQGTLVTVSS
VL: QSVLTQPPSVSGTPGQRVTISCSGSTSNIGTMYVHWYQHVPGTAPKLLIYRNNHRPSGVPDRFSGSKSGTSGSLAISGLRSEDEADYYCLAWDDTLRAYVFGTGTKVTVLG
notes: Human IgG1-3M from phage display; also called mAb-TFPI-24; clone 24
B4: TFPI-118 (antibody, human IgG1, lambda, V domains shown)
VH: B3 VH with S11L, R40A, L68F, I83M, D84N, D89E
VL: B3 VL with V10A, H39Q, V40L, G72A
notes: Germlined variant of TFPI-24: VL of TFPI-113 paired with VH of TFPI-108
B5: hz4F36 (antibody, human IgG4 S228P, kappa, V domains shown)
VH: EVQLVESGGGLVKPGGSLRLSCAASGFTFSNYAMSWVRQTPEKRLEWVATISRSGSYSYFPDSVQGRFTISRDNAKNSLYLQMNSLRAEDTAVYYCARLGGYDEGDAMDSWGQGTTVTVSS
VL: DIVMTQTPLSLSVTPGQPASISCKSSQSLLESDGKTYLNWYLQKPGQSPQLLIYLVSILDSGVPDRFSGSGSGTDFTLKISRVEAEDVGVYYCLQATHFPQTFGGGTKVEIKR
notes: also called Novo2021; Anti-TFPI-4F36
B6: hz4D8 (antibody, human IgG1, kappa, V domains shown)
VH: EVQLVESGGGLVQPGGSLRLSCAASGYTFTDYNLDWVRQAPGKGLEWVADINPINGATLYNQKFKGRFTISRDQAKNSLYLQMNSLRAEDTAVYYCARYYGDYDAMDYWGQGTLVTVSS
VL: DIQMTQSPSSLSASVGDRVTITCKASQDVHTAVAWYQQKPGKAPKLLIYWASTRHTGVPSRFSGSGSGTDYTLTISSLQPEDFATYYCQQHYTTPYTFGQGTKLEIKR
notes: also called 4D8-Vk1.1 × VH1.4; 4D8 Vk 1.1 × VH 1.4

Tests used:
cyno TFPI K2 = target: T5, cyno TFPI K2 (cynomolgus monkey, UniProt Q28864 116-177 (rhesus entry), limits assumed); assay: not told
T5 construct: K2 fragment cut out of cynTFPI K1K2 with human neutrophil elastase, residual AviTag trimmed with AspN; also called Cynomolgus TFPI K2 domain; cyno K2
Experimental: Based on buried surface area (BSA) and percent BSA (% BSA) for residues at the Fab TFPI K1K2 interface, the epitope and paratope of the complex were determined.

cyno K1 = target: T1, cyno K1; assay: not told
humTFPI K1K2 [1] = target: T6, humTFPI K1K2 (human); assay: SPR, antibody ligand, TFPI analyte;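 on result: surface plasmon resonance on a BIAcore T200 at 25 °C, test antibody captured on immobilized anti-human IgG, TFPI K1K2 flowed as analyte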
T6 construct: Biotinylated on the AviTag for ELISA; also called Human TFPIα K1K2; humTFPI K1K2-aviHis10
Experimental: (§1) The flow cells were activated by injecting a 1:1 mixture of 400 mM 1-Ethyl-3-(3-dimethylaminopropyl) carbodiimide hydrochloride (EDC) and N-hydroxysuccinimide (NHS) for 7 minutes at a flow rate of 10 μl/minute. Anti-human IgG antibody was diluted to 25 μg/ml in 10 mM Sodium Acetate pH 5.0 and injected over all flow cells for 7 minutes at 10 ul/minute. All flow cells were blocked with 1 M Ethanolamine-HCL (ETH) for 7 minutes at 10 μl/minute. Final immobilization level of the capture antibody was approximately 10,000 resonance units (RU). The running buffer for immobilization and kinetics was 10 mM HEPES pH 7.4, 150 mM NaCl, 3 mM EDTA, 0.05% (v/v) Tween-20 (HBS-EP+). […] Flow cell 1 was used as a reference surface. […] At the end of each cycle, the entire anti-IgG surface was regenerated by a 60 second pulse of 3 M MgCl2. Kinetic assays were conducted at 25° C. at a collection rate of 10 Hz on a BIAcore T200 instrument (GE Healthcare). Rate constants and affinities were determined by fitting the data to a 1:1 model in BIAcore T200 Evaluation software version 1.0 (GE).

murTFPI K1K2 [2] = target: T2, murTFPI K1K2; assay: SPR, antibody ligand, TFPI analyte;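 on result: surface plasmon resonance on a BIAcore T200 at 25 °C, test antibody captured on immobilized anti-human IgG, TFPI K1K2 flowed as analyte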
Experimental: as §1

cynTFPI K1K2 [3] = target: T7, cynTFPI K1K2 (cynomolgus monkey); assay: SPR, antibody ligand, TFPI analyte;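 further: surface plasmon resonance on a BIAcore T200 at 25 °C, test antibody captured on immobilized anti-human IgG, TFPI K1K2 flowed as analyte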
T7 construct: also called Cynomolgus Monkey TFPI K1K2; cyno TFPI K1K2
Experimental: as §1

rabTFPI K1K2 [4] = target: T3, rabTFPI K1K2; assay: SPR, antibody ligand, TFPI analyte
Experimental: as §1

humTFPI K1K2 [5] = target: T6, humTFPI K1K2; assay: cell-based or functional assay
humTFPI K1K2 [6] = target: T6, humTFPI K1K2; assay: cell-based or functional assay; remark: listed apart in the source
humTFPI K1K2 [7] = target: T6, humTFPI K1K2; assay: SPR, antibody ligand, TFPI analyte; remark: listed apart in the source
rabTFPI K1K2 [8] = target: T3, rabTFPI K1K2; assay: SPR, antibody ligand, TFPI analyte
humTFPI K1K2 [9] = target: T6, humTFPI K1K2; assay: ELISA, biotinylated TFPI on streptavidin plate
Experimental: (§2) Purified anti-TFPI antibodies were diluted to 1 ug/ml in ELISA assay buffer, then serially diluted three-fold to generate an eight-point dilution series. The diluted antibodies were added at a volume of 100 uL per well. The plates were incubated at room temperature for 2 hours. After washing the plates with PBS/0.05% Tween 20, the plates were incubated with a goat anti-mouse IgG-Fc polyclonal antibody conjugated with horseradish peroxidase (Pierce) at 1:10,000 dilution. After 1 hour of incubation, bound antibody was detected with the addition of a TMB substrate solution. Absorbances were read a 450 nm, and the data were analyzed by GraphPad Prism software.

rabTFPI K1K2 [10] = target: T3, rabTFPI K1K2; assay: ELISA, biotinylated TFPI on streptavidin plate
Experimental: as §2

humTFPI K1K2 [11] = target: T6, humTFPI K1K2; assay: cell-based or functional assay; remark: listed apart in the source
humTFPI K1K2 [12] = target: T6, humTFPI K1K2; assay: SPR, antibody ligand, TFPI analyte; remark: listed apart in the source
murTFPI K1K2 [13] = target: T2, murTFPI K1K2; assay: SPR, antibody ligand, TFPI analyte
humTFPI K1K2 [14] = target: T6, humTFPI K1K2; assay: SPR, antibody ligand, TFPI analyte; remark: listed apart in the source
Experimental: as §1

rabTFPI K1K2 [15] = target: T3, rabTFPI K1K2; assay: SPR, summary table
Experimental: as §1

ratTFPI K1K2 [16] = target: T4, ratTFPI K1K2; assay: SPR, summary table
Experimental: as §1

humTFPI K1K2 [17] = target: T6, humTFPI K1K2; assay: cell-based or functional assay; remark: listed apart in the source
ratTFPI K1K2 [18] = target: T4, ratTFPI K1K2; assay: SPR, antibody ligand, TFPI analyte;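 further: surface plasmon resonance on a BIAcore T200 at 25 °C, test antibody captured on immobilized anti-human IgG, TFPI K1K2 flowed as analyte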
Experimental: as §1

humTFPI K1K2 [19] = target: T6, humTFPI K1K2; assay: SPR, summary table
Experimental: as §1

murTFPI K1K2 [20] = target: T2, murTFPI K1K2; assay: SPR, summary table
Experimental: as §1

cynTFPI K1K2 [21] = target: T7, cynTFPI K1K2; assay: SPR, summary table
Experimental: as §1

humTFPI K1K2 [22] = target: T6, humTFPI K1K2; assay: SPR, antibody ligand, TFPI analyte; remark: listed apart in the source
Experimental: as §1

humTFPI K1K2 [23] = target: T6, humTFPI K1K2; assay: ELISA, biotinylated TFPI on streptavidin plate; remark: listed apart in the source
rabTFPI K1K2 [24] = target: T3, rabTFPI K1K2; assay: ELISA, biotinylated TFPI on streptavidin plate

| Binder | Kd (humTFPI K1K2 [1]) | koff (humTFPI K1K2 [1]) | kon (humTFPI K1K2 [1]) | Kd (cynTFPI K1K2 [3]) | koff (cynTFPI K1K2 [3]) | kon (cynTFPI K1K2 [3]) | Kd (rabTFPI K1K2 [4]) | koff (rabTFPI K1K2 [4]) | kon (rabTFPI K1K2 [4]) | FXa EC50 (humTFPI K1K2 [6]) | FXa-FVIIa EC50 (humTFPI K1K2 [6]) | Kd (rabTFPI K1K2 [15]) | FVIIa/TF/Xa EC50 (humTFPI K1K2 [17]) | Xa Inhibition Assay EC50 (humTFPI K1K2 [17]) | Kd (humTFPI K1K2 [19]) | binding result (murTFPI K1K2 [20]) | Kd (cynTFPI K1K2 [21]) | further results |
| --- | --- | --- | --- | --- | --- | --- | --- | --- | --- | --- | --- | --- | --- | --- | --- | --- | --- | --- |
| B1 | 10.6 nM | 0.00377 s⁻¹ | 355000 M⁻¹ s⁻¹ | 13.2 nM | 0.00306 s⁻¹ | 237000 M⁻¹ s⁻¹ | 1.69 nM | 0.00123 s⁻¹ | 730000 M⁻¹ s⁻¹ | – | – | – | – | – | – | – | – | binding result (cyno TFPI K2): no binding; binding result (cyno K1): no binding; Kd (murTFPI K1K2 [2]): 33.6 nM; koff (murTFPI K1K2 [2]): 0.00632 s⁻¹; kon (murTFPI K1K2 [2]): 191000 M⁻¹ s⁻¹ |
| B2 | – | – | – | – | – | – | – | – | – | 4.15 nM | 3.5 nM | – | – | – | – | – | – | FXa EC50 (humTFPI K1K2 [5]): 5.9 nM; FXa-FVIIa EC50 (humTFPI K1K2 [5]): 6.67 nM; Kd (humTFPI K1K2 [7]): 1.19 nM; koff (humTFPI K1K2 [7]): 0.00114 s⁻¹; kon (humTFPI K1K2 [7]): 958000 M⁻¹ s⁻¹; Kd (rabTFPI K1K2 [8]): 0.63 nM; koff (rabTFPI K1K2 [8]): 0.00126 s⁻¹; kon (rabTFPI K1K2 [8]): 2.01e+06 M⁻¹ s⁻¹; EC50 (humTFPI K1K2 [9]): 0.0959 nM; EC50 (rabTFPI K1K2 [10]): 0.0976 nM |
| B3 | – | – | – | – | – | – | – | – | – | – | – | – | – | – | – | – | – | FXa EC50 (humTFPI K1K2 [11]): 23 nM; FXa-FVIIa EC50 (humTFPI K1K2 [11]): 9.3 nM; Kd (humTFPI K1K2 [12]): 5.46 nM; koff (humTFPI K1K2 [12]): 0.000862 s⁻¹; kon (humTFPI K1K2 [12]): 159000 M⁻¹ s⁻¹; Kd (murTFPI K1K2 [13]): 24.1 nM; koff (murTFPI K1K2 [13]): 0.00596 s⁻¹; kon (murTFPI K1K2 [13]): 248000 M⁻¹ s⁻¹; koff (humTFPI K1K2 [14]): 0.000862 s⁻¹; kon (humTFPI K1K2 [14]): 159000 M⁻¹ s⁻¹ |
| B4 | – | – | – | – | – | – | 5.79 nM | – | – | – | – | 5.79 nM | 4.03 nM | 20.8 nM | – | – | – | Kd (ratTFPI K1K2 [16]): 3.65 nM; Kd (ratTFPI K1K2 [18]): 3.65 nM |
| B5 | 0.49 nM | 0.00093 s⁻¹ | 1.89e+06 M⁻¹ s⁻¹ | 0.425 nM | 0.00288 s⁻¹ | 6.86e+06 M⁻¹ s⁻¹ | 1.81 nM | 0.0076 s⁻¹ | 4.2e+06 M⁻¹ s⁻¹ | – | – | 1.81 nM | 1.85 nM | 6.57 nM | 0.493 nM | no binding | 0.425 nM | binding result (ratTFPI K1K2 [18]): no binding |
| B6 | 0.42 nM | 0.00132 s⁻¹ | 3.16e+06 M⁻¹ s⁻¹ | 0.067 nM | 0.00195 s⁻¹ | 2.93e+07 M⁻¹ s⁻¹ | 0.502 nM | 0.0029 s⁻¹ | 3.16e+06 M⁻¹ s⁻¹ | 1.87 nM | 1.57 nM | 0.502 nM | 0.4 nM | 6.92 nM | 0.42 nM | no binding | 0.067 nM | binding result (ratTFPI K1K2 [16]): no binding; Kd (humTFPI K1K2 [22]): 0.293 nM; koff (humTFPI K1K2 [22]): 5.28e-05 s⁻¹; kon (humTFPI K1K2 [22]): 221000 M⁻¹ s⁻¹; EC50 (humTFPI K1K2 [23]): 0.0493 nM; EC50 (rabTFPI K1K2 [24]): 0.0716 nM |
